Reference: publication PMC10434305
Like-named read-outs stand apart in the source and are kept apart here.

Assays:
[1] = biological target: Arp3 L117C, C408A, C189A, C307A (subunit of human Arp2/3 complex for the crosslinking assay) (human) (UniProt P61158); assay: cross-linking
[2] = biological target: Arp3 L117C, C408A, C189A, C307A (subunit of human Arp2/3 complex for the crosslinking assay) (human) (UniProt P61158); assay: cross-linking; remark: listed apart in the source
[3] = biological target: Arp3 L117C, C408A, C189A, C307A (subunit of human Arp2/3 complex for the crosslinking assay) (human) (UniProt P61158); assay: cross-linking; remark: listed apart in the source
[4] = biological target: Skeletal α-actin, monomeric (G-actin) (UniProt P68135); assay: SEC

crosslinked fraction at plateau [1] | crosslinked fraction at plateau [2] | crosslinked fraction at plateau [3] | stoichiometry N (CapZ-CA:actin) [4] | Substance
34% | 34% | 14% |  | Arp2 L199C (subunit of human Arp2/3 complex for the crosslinking assay) (from UniProt P61160 1-394) (natural protein)
 |  |  | 1 | CapZ-CA hybrid heterodimer (CapZα-CA, CapZβ-CA) (from UniProt P52907;Q91YD9;P47756) (complex)
